{"source": "paper PMC7761469", "biological_target": "epidermal growth factor receptor (EGFR) (human (endogenous in LNCaP, DU145 and PC-3)) (UniProt P00533)", "experiment": "flow cytometry on cells"}
{"substance": "targeted toxin EGF-PE40", "values": [{"measurement": "fold reduction of binding compared to EGF", "value": "28.6 to 76.1", "unit": "fold"}]}
